Test results from publication PMC6446838, “MAP7 family proteins regulate kinesin-1 recruitment and activation” (The Journal of Cell Biology, 2019).

B2: K560-GFP with C-terminal Strep-tag, purified (domain or fragment, human, UniProt P33176 1-560, looked up)
chain: MADLAECNIKVMCRFRPLNESEVNRGDKYIAKFQGEDTVVIASKPYAFDRVFQSSTSQEQVYNDCAKKIVKDVLEGYNGTIFAYGQTSSGKTHTMEGKLHDPEGMGIIPRIVQDIFNYIYSMDENLEFHIKVSYFEIYLDKIRDLLDVSKTNLSVHEDKNRVPYVKGCTERFVCSPDEVMDTIDEGKSNRHVAVTNMNEHSSRSHSIFLINVKQENTQTEQKLSGKLYLVDLAGSEKVSKTGAEGAVLDEAKNINKSLSALGNVISALAEGSTYVPYRDSKMTRILQDSLGGNCRTTIVICCSPSSYNESETKSTLLFGQRAKTIKNTVCVNVELTAEQWKKKYEKEKEKNKILRNTIQWLENELNRWRNGETVPIDEQFDKEKANLEAFTVDKDITLTNDKPATAIGVIGNFTDAERRKCEEEIAKLYKQLDDKDEEINQQSQLVEKLKTQMLDQEELLASTRRDQDNMQAELNRLQAENDASKEEVKEVLQALEELAVNYDQKSQEVEDKTKEYELLSDELNQKSATLASIDAELQKLKEMTNHQKKRAAEMMASLLK
notes: kinesin-1 heavy chain KIF5B, human, residues 1-560; pTT5 vector; also called KIF5B-560; source: HEK293T, transfected, purified (Strep(II)-streptactin, high-salt wash); not shown: GFP, C-terminal, kept

Assays:
[1] = molecular target: the molecule itself; experiment: SEC-MALS; Superdex 200 10/300, 10 mM Tris HCl pH 7.5, 150 mM NaCl, 20°C; 30 µl of protein at 5 mg/ml injected
[2] = molecular target: the molecule itself; experiment: single-molecule fluorescence intensity analysis (TIRF); intensity of GFP-tagged kinesins moving on MTs compared with monomeric GFP, with or without MAP7 proteins; 30°C
[3] = molecular target: T1, full-length KIF5B-GFP with C-terminal Strep-tag (human, UniProt P33176 1-963); experiment: cell-based or functional assay
T1 sequence (looked up): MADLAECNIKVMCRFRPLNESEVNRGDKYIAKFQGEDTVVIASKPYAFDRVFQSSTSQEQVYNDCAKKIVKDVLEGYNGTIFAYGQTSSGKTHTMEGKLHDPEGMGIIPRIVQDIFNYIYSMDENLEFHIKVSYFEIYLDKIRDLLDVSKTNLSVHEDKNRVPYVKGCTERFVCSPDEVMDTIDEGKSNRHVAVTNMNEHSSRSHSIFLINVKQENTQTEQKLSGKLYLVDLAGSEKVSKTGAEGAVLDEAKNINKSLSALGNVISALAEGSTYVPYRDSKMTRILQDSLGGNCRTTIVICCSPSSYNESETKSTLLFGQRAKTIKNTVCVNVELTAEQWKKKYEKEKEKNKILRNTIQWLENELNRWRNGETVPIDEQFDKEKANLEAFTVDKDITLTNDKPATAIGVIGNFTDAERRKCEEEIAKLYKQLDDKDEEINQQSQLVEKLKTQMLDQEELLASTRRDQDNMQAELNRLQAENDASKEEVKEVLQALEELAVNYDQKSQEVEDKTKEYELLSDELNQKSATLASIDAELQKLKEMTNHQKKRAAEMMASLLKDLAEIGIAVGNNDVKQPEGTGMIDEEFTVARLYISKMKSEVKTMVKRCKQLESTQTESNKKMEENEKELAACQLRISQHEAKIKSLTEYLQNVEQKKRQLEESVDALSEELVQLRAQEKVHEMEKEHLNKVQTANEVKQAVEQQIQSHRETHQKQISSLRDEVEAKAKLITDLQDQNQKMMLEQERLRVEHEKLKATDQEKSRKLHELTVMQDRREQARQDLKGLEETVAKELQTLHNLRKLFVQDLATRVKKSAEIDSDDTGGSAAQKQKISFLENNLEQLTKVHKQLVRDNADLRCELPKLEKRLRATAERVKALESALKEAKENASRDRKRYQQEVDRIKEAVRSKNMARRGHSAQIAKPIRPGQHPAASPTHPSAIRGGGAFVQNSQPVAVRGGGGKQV

[4] = molecular target: B2; experiment: cell-based or functional assay

B1: KIF5B fragment (minimal binding construct for SEC-MALS and ITC) (domain or fragment)
chain: CEEEIAKLYKQLDDKDEEINQQSQLVEKLKTQMLDQEELLASTRRDQDNMQAELNRLQAENDASKEEVKEVLQALEELAVNYDQKSQEVEDKTKEYELLSDEL
[1]
  stoichiometry N: 2

## B2
[2]
  stoichiometry N: 2

B3: Alexa Fluor 647–labeled SNAP-tag-MAP7D3, full length (natural protein, UniProt Q8IWC1 1-876, looked up)
chain: MMADGAAAGAGGSPSLRELRARMVAAANEIAKERRKQDVVNRVATHSSNIRSTFKPVIDGSMLKNDIKQRLARERREEKRRQQDANKETQLLEKERKTKLQYEKQMEERQRKLKERKEKEEQRRIAAEEKRHQKDEAQKEKFTAILYRTLERRRLADDYQQKRWSWGGSAMANSESKTANKRSASTEKLEQGTSALIRQMPLSSAGLQNSVAKRKTDKERSSSLNRRDSNLHSSTDKEQAERKPRVTGVTNYVMQYVTVPLRKCTSDELRAVMFPMSTMKIPPQTKVEESPLEKVETPPKASVDAPPQVNVEVFCNTSMEASPKAGVGMAPEVSTDSFPVVSVDVSPVVSTYDSEMSMDASPELSIEALPKVDLETVPKVSIVASPEASLEAPPEVSLEALPEVSVEAAPEGSLEAPPKGSAEVAPKESVKGSPKESMEASPEAMVKASPKTSLEASMEASPKAKARDAPKKSEMDKQALIPIAKKRLSSYTECYKWSSSPENACGLPSPISTNRQIQKNCPPSPLPLISKQSPQTSFPYKIMPIQHTLSVQSASSTVKKKKETVSKTTNRCEALSQRHMIYEESGNKSTAGIMNAEAATKILTELRRLAREQREKEEEERQREEMQQRVIKKSKDMAKEAVGGQAEDHLKLKDGQQQNETKKKKGWLDQEDQEAPLQKGDAKIKAQEEADKRKKEHERIMLQNLQERLERKKRIEEIMKRTRKTDVNASKVTETSSHDIYEEAEADNEESDKDSLNEMFPSAILNGTGSPTKFKMPFNNAKKMTHKLVFLEDGTSQVRKEPKTYFNGDLKNFRQKSMKDTSIQEVVSRPSSKRMTSHTTKTRKADETNTTSRSSAQTKSEGFHDILPKSSDTFRQ
modifications: Alexa Fluor 647 on the SNAP-tag
[3]
  events of full-length KIF5B-GFP on dynamic MTs in vitro (short binding events and landing followed by processive movement), with MAP against kinesin alone: ≥ 60 fold
  run length of full-length KIF5B-GFP on dynamic MTs in vitro, with MAP against kinesin alone: ~1.6 fold
[4]
  landing frequency of K560-GFP on MAP-decorated dynamic MTs in vitro, increasing MAP concentrations, against K560 alone: ≤ 23.6 fold
  processivity (run length) of K560-GFP on dynamic MTs in vitro: 2 fold

B4: K370-GFP with C-terminal Strep-tag, purified (domain or fragment)
chain: not shown
notes: kinesin-1 heavy chain KIF5B, human, residues 1-370; pEGFP-N1 vector; also called KIF5B 1–370; source: HEK293T, transfected, purified (Strep(II)-streptactin); not shown: GFP, C-terminal, kept
[2]
  stoichiometry N: 2
